For assay [1], the target named is p85 regulatory subunit of PI3 kinase (PI3K-p85; p85α in Table 1) (UniProt P27986). Put plainly: biotin-peptide streptavidin-agarose pull-down, Western blot. The following applies: reference: non-phosphorylated Cav1 peptide; sites Y14. (A western blot detects proteins with antibodies after separation by electrophoresis.)
Assay [2] deals with phospholipase Cγ1 (PLCγ1) (UniProt P19174). The description is as above. As to conditions: reference: non-phosphorylated Cav1 peptide; sites Y14.
For assay [3], the target named is T1, caveolin-1 (human (endogenous in Chang cells)), Q03135.
T1 chain: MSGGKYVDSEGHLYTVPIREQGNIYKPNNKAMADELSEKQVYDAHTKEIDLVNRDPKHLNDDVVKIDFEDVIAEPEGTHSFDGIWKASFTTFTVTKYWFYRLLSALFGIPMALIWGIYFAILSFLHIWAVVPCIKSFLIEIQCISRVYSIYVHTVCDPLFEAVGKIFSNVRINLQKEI
Put plainly: co-IP; as a1, but Chang cells infected with N138 (PorBIB, P+) at MOI 20 for 1 h; endogenous Cav1 precipitated, Western blot. As to conditions: remark: other sources report otherwise.

For assay [4], the target named is T1, caveolin-1 (human (endogenous in Chang …)). Put plainly: co-IP; endogenous Cav1 precipitated with anti-Caveolin antibody (BD Transduction) and Protein G magnetic beads from Chang cell lysates (20 mM Tris, 150 mM NaCl, 1% Triton-X-100, pH 7.5); cells not infected or infected with N927 (PorBIA, P-) at MOI 20 for 1 h; in one experiment PLCγ1 inhibitor U73122 (10 µM) added 30 min before infection; Western blot. The following applies: remark: other sources report otherwise.

The source of these data is paper PMC3662692.

On to “caveolin-1 (Cav1) 7-21 (from UniProt Q03135) Cav1 pY14 peptide”, for which the “binding against the reference” value in assay [1] and in assay [2] was “gained” each time.

B1: Vav2, P52735 1-878 (natural protein)
chain: MEQWRQCGRWLIDCKVLPPNHRVVWPSAVVFDLAQALRDGVLLCQLLHNLSPGSIDLKDINFRPQMSQFLCLKNIRTFLKVCHDKFGLRNSELFDPFDLFDVRDFGKVISAVSRLSLHSIAQNKGIRPFPSEETTENDDDVYRSLEELADEHDLGEDIYDCVPCEDGGDDIYEDIIKVEVQQPMIRYMQKMGMTEDDKRNCCLLEIQETEAKYYRTLEDIEKNYMSPLRLVLSPADMAAVFINLEDLIKVHHSFLRAIDVSVMVGGSTLAKVFLDFKERLLIYGEYCSHMEHAQNTLNQLLASREDFRQKVEECTLKVQDGKFKLQDLLVVPMQRVLKYHLLLKELLSHSAERPERQQLKEALEAMQDLAMYINEVKRDKETLRKISEFQSSIENLQVKLEEFGRPKIDGELKVRSIVNHTKQDRYLFLFDKVVIVCKRKGYSYELKEIIELLFHKMTDDPMNNKDVKKSHGKMWSYGFYLIHLQGKQGFQFFCKTEDMKRKWMEQFEMAMSNIKPDKANANHHSFQMYTFDKTTNCKACKMFLRGTFYQGYMCTKCGVGAHKECLEVIPPCKFTSPADLDASGAGPGPKMVAMQNYHGNPAPPGKPVLTFQTGDVLELLRGDPESPWWEGRLVQTRKSGYFPSSSVKPCPVDGRPPISRPPSREIDYTAYPWFAGNMERQQTDNLLKSHASGTYLIRERPAEAERFAISIKFNDEVKHIKVVEKDNWIHITEAKKFDSLLELVEYYQCHSLKESFKQLDTTLKYPYKSRERSASRASSRSPASCASYNFSFLSPQGLSFASQGPSAPFWSVFTPRVIGTAVARYNFAARDMRELSLREGDVVRIYSRIGGDQGWWKGETNGRIGWFPSTYVEEEGIQ
In the case of B1, the relative amount of Vav2 in the Cav1 precipitate, cells infected with N138 (non-infected cells = 100%) in assay [3] was found to be 99%. In assay [4], this molecule gave a relative amount of Vav2 in the Cav1 precipitate, cells infected with N927 (non-infected cells = 100%) of 50% and a relative amount of Vav2 in the Cav1 precipitate, non-infected cells (reference) of 100%.
